According to publication PMC2901993 (Biochemical and biophysical research communications, 2010):

Target: T1, translin-associated factor x (trax), mouse, N-terminal 6x-His tag (mouse (M. musculus), UniProt Q9QZE7 1-290)
T1 sequence (looked up): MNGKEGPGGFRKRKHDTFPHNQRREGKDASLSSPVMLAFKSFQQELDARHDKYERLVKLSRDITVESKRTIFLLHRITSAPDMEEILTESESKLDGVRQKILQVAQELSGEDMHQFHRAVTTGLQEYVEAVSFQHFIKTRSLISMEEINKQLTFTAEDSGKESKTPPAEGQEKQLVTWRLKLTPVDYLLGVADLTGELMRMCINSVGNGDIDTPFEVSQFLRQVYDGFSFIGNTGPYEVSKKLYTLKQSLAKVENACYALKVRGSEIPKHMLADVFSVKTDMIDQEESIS
Assay: pull-down

B1: translin (mouse), co-expressed with trax from pETDuet-1 (natural protein, mouse (M. musculus), UniProt Q62348 1-228, looked up)
chain: MSVSEIFVELQGFLAAEQDIREEIRKVVQSLEQTAREILTLLQGVHQGTGFQDIPKRCLKAREHFSTVKTHLTSLKTKFPAEQYYRFHEHWRFVLQRLVFLAAFVVYLETETLVTREAVTEILGIEPDREKGFHLDVEDYLSGVLILASELSRLSVNSVTAGDYSRPLHISTFINELDSGFRLLNLKNDSLRKRYDGLKYDVKKVEEVVYDLSIRGFNKETAAACGEK
Q: Which “stoichiometry N” value does the source give for B1 here?
A: The value was ~1.
